Where a chain is given by its changes, count along the chain named. In names and notes the source's numbering stands.
B1: IL6R-2B002/IL6R-L (antibody, human IgG1, kappa, name in EU numbering)
heavy: QVQLQESGPGLVKPSETLSLTCAVSGHSISHDHAWSWVRQPPGEGLEWIGFISYSGITNYNPSLQGRVTISRDNSKNTLYLQMNSLRAEDTAVYYCARSLARTTAMDYWGEGTLVTVSSASTKGPSVFPLAPSSKSTSGGTAALGCLVKDYFPEPVTVSWNSGALTSGVHTFPAVLQSSGLYSLSSVVTVPSSSLGTQTYICNVNHKPSNTKVDKKVEPKSCDKTHTCPPCPAPDLLGGDSVFLFPPKPKDTLMISRTPEVTCVVVDVSHEDPEVKFNWYVDGVEVHNAKTKPREEQYNSTYRVVSVLTVLHQDWLNGKEYKCKVSNKALPAPIEKTISKAKGQPREPQVYTLPPSRDELTKNQVSLTCLVKGFYPSDIAVEWESNGQPENNYKTTPPVLDSDGSFFLYSKLTVDKSRWQQGNVFSCSVMHEALHNHYTQESLSLSP
light: not shown
notes: Alterations introduced into IL6R-B3; also called P238D/E233D; copies: 2 + 2
B2: IL6R-BP119/IL6R-L (antibody, human IgG1, kappa, name in EU numbering)
heavy: B1 heavy with D235E, K328M
light: not shown
notes: Alterations introduced into IL6R-B3; also called P238D/K326M; copies: 2 + 2
B3: IL6R-BP103/IL6R-L (antibody, human IgG1, kappa, name in EU numbering)
heavy: B1 heavy with D235E, S269V
light: not shown
notes: Alterations introduced into IL6R-B3; also called P238D/S267V; copies: 2 + 2
B4: IL6R-BP100/IL6R-L (antibody, human IgG1, kappa, name in EU numbering)
heavy: B1 heavy with D235E, S269A
light: not shown
notes: Alterations introduced into IL6R-B3; also called P238D/S267A; copies: 2 + 2
B5: IL6R-BP121/IL6R-L (antibody, human IgG1, kappa, name in EU numbering)
heavy: B1 heavy with D235E, K328Q
light: not shown
notes: Alterations introduced into IL6R-B3; also called P238D/K326Q; copies: 2 + 2
B6: IL6R-BP136/IL6R-L (antibody, human IgG1, kappa, name in EU numbering)
heavy: B1 heavy with D235E, K328A
light: not shown
notes: Alterations introduced into IL6R-B3; also called P238D/K326A; copies: 2 + 2
B7: IL6R-BP116/IL6R-L (antibody, human IgG1, kappa, name in EU numbering)
heavy: B1 heavy with D235E, K328T
light: not shown
notes: Alterations introduced into IL6R-B3; also called P238D/K326T; copies: 2 + 2
B8: IL6R-2B128/IL6R-L (antibody, human IgG1, kappa, name in EU numbering)
heavy: B1 heavy with D235E, Y298D
light: not shown
notes: Alterations introduced into IL6R-B3; also called P238D/Y296D; copies: 2 + 2
B9: IL6R-BP106/IL6R-L (antibody, human IgG1, kappa, name in EU numbering)
heavy: B1 heavy with D235E, H270D
light: not shown
notes: Alterations introduced into IL6R-B3; also called P238D/H268D; copies: 2 + 2
B10: IL6R-2B171/IL6R-L (antibody, human IgG1, kappa, name in EU numbering)
heavy: B1 heavy with D235E, V325L
light: not shown
notes: Alterations introduced into IL6R-B3; also called P238D/V323L; copies: 2 + 2
B11: IL6R-BP126/IL6R-L (antibody, human IgG1, kappa, name in EU numbering)
heavy: B1 heavy with D235E, K328L
light: not shown
notes: Alterations introduced into IL6R-B3; also called P238D/K326L; copies: 2 + 2
B12: IL6R-BP142/IL6R-L (antibody, human IgG1, kappa, name in EU numbering)
heavy: B1 heavy with D235E, K328N
light: not shown
notes: Alterations introduced into IL6R-B3; also called P238D/K326N; copies: 2 + 2
B13: IL6R-BP117/IL6R-L (antibody, human IgG1, kappa, name in EU numbering)
heavy: B1 heavy with D235E, K328D
light: not shown
notes: Alterations introduced into IL6R-B3; also called P238D/K326D; copies: 2 + 2
B14: IL6R-BP078/IL6R-L (antibody, human IgG1, kappa, name in EU numbering)
heavy: B1 heavy with D235E, A332M
light: not shown
notes: Alterations introduced into IL6R-B3; also called P238D/A330M; copies: 2 + 2
B15: IL6R-BP912/IL6R-L (antibody, human IgG1, kappa, name in EU numbering)
heavy: B1 heavy with D235E, A332R
light: not shown
notes: Alterations introduced into IL6R-B3; also called P238D/A330R; copies: 2 + 2
B16: IL6R-BP911/IL6R-L (antibody, human IgG1, kappa, name in EU numbering)
heavy: B1 heavy with D235E, A332K
light: not shown
notes: Alterations introduced into IL6R-B3; also called P238D/A330K; copies: 2 + 2
B17: IL6R-BP120/IL6R-L (antibody, human IgG1, kappa, name in EU numbering)
heavy: B1 heavy with D235E, K328E
light: not shown
notes: Alterations introduced into IL6R-B3; also called P238D/K326E; copies: 2 + 2
B18: IL6R-2B169/IL6R-L (antibody, human IgG1, kappa, name in EU numbering)
heavy: B1 heavy with D235E, V325I
light: not shown
notes: Alterations introduced into IL6R-B3; also called P238D/V323I; copies: 2 + 2
B19: IL6R-BP110/IL6R-L (antibody, human IgG1, kappa, name in EU numbering)
heavy: B1 heavy with D235E, H270N
light: not shown
notes: Alterations introduced into IL6R-B3; also called P238D/H268N; copies: 2 + 2

The binders below were run against T1, human FcγRIIIa type V (allotype V158) extracellular domain with C-terminal His tag (human, UniProt P08637 17-208) (assay: SPR (Biacore), antibody captured, FcγR analyte).
T1 construct: also called FcγRIIIaV
T1 sequence (P08637 other isoform, or with tags, fused parts or gaps): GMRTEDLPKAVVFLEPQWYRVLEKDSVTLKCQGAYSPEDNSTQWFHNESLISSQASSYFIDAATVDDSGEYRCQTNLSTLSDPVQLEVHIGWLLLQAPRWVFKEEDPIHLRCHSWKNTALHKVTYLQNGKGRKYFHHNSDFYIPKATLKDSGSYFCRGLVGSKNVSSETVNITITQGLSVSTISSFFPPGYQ

Row | Kd | Binder
1 | 53 µM | B1
2 | 56 µM | B2
3 | 110 µM | B3
4 | 59 µM | B4
5 | 52 µM | B5
6 | 69 µM | B6
7 | 72 µM | B7
8 | 72 µM | B8
9 | 55 µM | B9
10 | 57 µM | B10
11 | 56 µM | B11
12 | 110 µM | B12
13 | 67 µM | B13
14 | 78 µM | B14
15 | 78 µM | B15
16 | 58 µM | B16
17 | 79 µM | B17
18 | 75 µM | B18
19 | 64 µM | B19

Reference: patent US20240279325A1 (Chugai, published 2024)
